In the supplement of paper PMC12042874:
± gives the uncertainty stated by the source.

Assay: amyloid nucleation score (Sup35N fusion, yeast selection) (log enrichment); library NNK2; higher = more nucleation; inactive = no reads after selection
Method in brief: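 Libraries of peptides of 20 random codons fused to Sup35N were expressed in psi-negative yeast and induced 24 hours with 100 μM copper sulfate. Selection was 7 days at 30°C on medium lacking adenine and uracil, and plasmid inserts were Illumina-sequenced before and after selection. Nucleation score is the DiMSum log enrichment of output over input reads, centred on the mode score of non-aggregating sequences, and sequences with under 100 input reads were left out.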

QYSFKVDKTCRSVH and QYVMERYWRDWFKRMMLLFS are within error of each other in amyloid nucleation score: 0.147 ± 0.76 for the first, 0.584 ± 0.27 for the second.

QYVSMKMNLRTR and RAMANHHDDWLVPGFQ are within error of each other in amyloid nucleation score: -0.403 ± 1 for the first, -0.258 ± 0.45 for the second.

Compared with RAMLNLKE, RAQYPFDSLSRGSGPVMWLS is lower in amyloid nucleation score: 2.46 ± 0.053 for the first, 1 ± 0.57 for the second.

Going from RASVYCFLEHG to RATKYFLSFCSLKFKFCHYF, the amyloid nucleation score falls from 3.42 ± 0.049 to -0.658 ± 0.32.

Going from RAVRDLLVLNIINVAVTSIN to RCCSVAYTIGLLTRRSLATG, the amyloid nucleation score falls from 7.495 ± 0.043 to 0.451 ± 0.24.

RCEVAMDGVESVKSFPA and RCFIDLPCCQYLVQPRVGSG are within error of each other in amyloid nucleation score: 0.697 ± 0.35 for the first, -0.26 ± 1 for the second.

Going from RCGVYRVTHSEAERSLSISL to RCIIIAM, the amyloid nucleation score rises from 0.698 ± 0.57 to 2.88 ± 0.12.

Compared with RCLGLCFICEYDFGVMRYSA, RCMLKSIRLLSSVGRLHYRW is higher in amyloid nucleation score: -0.633 ± 0.48 for the first, 0.742 ± 0.48 for the second.

Going from RCQLRALRCPFMSTVLRCSY to RCSVGVAWEVGKYVIKIRGF, the amyloid nucleation score falls from 0.803 ± 0.28 to -1.08 ± 0.62.

Going from RCVKNKLWTYMGGNISYTSS to RCVWYSGSRLWTYWQVWLMG, the amyloid nucleation score falls from 2.14 ± 0.1 to 0.458 ± 0.8.

Compared with RCWWAYQ, RDHYCFYRYRKGEFNNTRHP is lower in amyloid nucleation score: 1.11 ± 0.12 for the first, -0.147 ± 0.39 for the second.

RDNYEGLY and RECQHF are within error of each other in amyloid nucleation score: -1.05 ± 0.74 for the first, -0.077 ± 0.74 for the second.

Compared with REDLLRNKTLL, RENVVSGHDRNECAGLMSRG is higher in amyloid nucleation score: -0.858 ± 0.44 for the first, 0.343 ± 0.27 for the second.

Compared with RERLL, REVIRGLCMYKARWIRVGVG is higher in amyloid nucleation score: -0.114 ± 0.51 for the first, 0.947 ± 0.21 for the second.

Compared with REYASILMYRNCMCH, RFCFVTIYSHRGVYANRMGM is higher in amyloid nucleation score: 0.007 ± 0.5 for the first, 4.31 ± 0.075 for the second.

First: RFCRVDKWEVRQGM
Second: RFDDASGDMVNAEG
The amyloid nucleation score of the first is higher: 5.339 ± 0.051 for the first, 4.6 ± 0.05 for the second.

Compared with RFDQGVGTLWHVSLVTE, RFDSWVAWGFG is higher in amyloid nucleation score: -0.107 ± 1 for the first, 1.74 ± 0.15 for the second.

RFFNPNMLKFALSGQ and RFGLISANLLSLDY are within error of each other in amyloid nucleation score: -1.37 ± 0.44 for the first, -0.938 ± 1.1 for the second.

Going from RFICYSHTFTGSMLSISIR to RFKDCLIPQWLPGMIKNR, the amyloid nucleation score falls from 8.061 ± 0.077 to -0.444 ± 0.48.

Going from RFKSIWAVNVIWNDYVADNG to RFNFHTSD, the amyloid nucleation score falls from 7.835 ± 0.077 to -0.959 ± 1.1.

Going from RFPCRLLRASLFP to RFQFSICHYYDLNFS, the amyloid nucleation score rises from -0.636 ± 0.45 to 0.594 ± 0.66.

First: RFQVSLEILSIYRCRTTTD
Second: RFSLRRNCAMAQWLISATCS
The amyloid nucleation score of the first is higher: 3.27 ± 0.15 for the first, 0.37 ± 0.3 for the second.

Compared with RFSYGVEANVMSPINTFLQW, RFTNSESRNYRA is higher in amyloid nucleation score: 0.77 ± 0.23 for the first, 4.24 ± 0.069 for the second.

RFVFQIVSIYISWMVIDKTR and RFWLESIWLDNL are within error of each other in amyloid nucleation score: -0.436 ± 0.78 for the first, 0.25 ± 0.42 for the second.

RFYCRRT and RGCSESWLSW are within error of each other in amyloid nucleation score: 0.199 ± 0.33 for the first, 0.079 ± 0.34 for the second.

RGCSVSTDDSVIRLTIAWQY and RGFCN are within error of each other in amyloid nucleation score: 0.33 ± 0.4 for the first, -1 ± 1.1 for the second.

Going from RGKDEDMLKSECHYVL to RGLCVGSSARFCVY, the amyloid nucleation score rises from -0.883 ± 0.76 to 0.691 ± 0.6.

First: RGLRMYERGSVTWSFDFMEG
Second: RGMSAKSTERYVLGIGRAVS
The amyloid nucleation score of the first is higher: 5.44 ± 0.077 for the first, 4.18 ± 0.11 for the second.

Compared with RGPTAHTFSARENP, RGSSLCYLRKGGFGWQGVVG is higher in amyloid nucleation score: -0.312 ± 0.45 for the first, 0.733 ± 0.56 for the second.

Going from RHGGQAAGRVEHVTSGCQRV to RHMLYVGMSHNPRLGPSSLG, the amyloid nucleation score falls from 1.54 ± 0.47 to 0.511 ± 0.38.

First: RHMWDHFCCFF
Second: RHPMSKKTSYKWYVVLTQCR
The amyloid nucleation score of the first is higher: 5.28 ± 0.094 for the first, 0.554 ± 0.31 for the second.

RHRSNCMRRSTVSVGNVRES and RHSKFRVITENMIDPFQRS are within error of each other in amyloid nucleation score: 0.427 ± 0.23 for the first, 0.249 ± 0.64 for the second.

RHVRMISHELNEDTCYTCIL and RHYLRRCEEDNCHPKYFVRY are within error of each other in amyloid nucleation score: -0.536 ± 1.1 for the first, -0.439 ± 0.76 for the second.

RIASLTSLGGNMNCAVHSFE and RIISHDSCRVIFGKFRVDVW are within error of each other in amyloid nucleation score: -0.427 ± 1.1 for the first, 1.23 ± 0.57 for the second.

Compared with RIKRETHAAFNVYSIYAVRY, RIVQYIELRFTYQRKYNGAG is higher in amyloid nucleation score: 0.183 ± 0.3 for the first, 3.02 ± 0.057 for the second.

RIWMLY and RIWSFNGQTFVSNLSVSSVS are within error of each other in amyloid nucleation score: 0.42 ± 0.66 for the first, -0.773 ± 0.76 for the second.

RIYFTPRYLDIDFYWTLNAV and RKCQIRVMKNSD are within error of each other in amyloid nucleation score: -0.598 ± 0.64 for the first, -0.858 ± 1.1 for the second.

Compared with RKLLYCCEVATWCRGETSER, RKVRCRYSMT is lower in amyloid nucleation score: 4.33 ± 0.089 for the first, 0.142 ± 0.6 for the second.

In the case of RAFIINWALFGTRH, the amyloid nucleation score is reported as “inactive”.
With RCNRSCN the amyloid nucleation score was “inactive”.
For RDLSLNFIHPLRFGY, the amyloid nucleation score was “inactive”.
For RDYGQFCRSFGHLGLFLGSQ, the amyloid nucleation score was “inactive”.
With RELRQPNK the amyloid nucleation score was “inactive”.
In the case of RFFHGYFCGIRCRCQAVCQL, the amyloid nucleation score is reported as “inactive”.
With RGRCPCEVFNGSYVFVTHGD the amyloid nucleation score was “inactive”.
With RIMISSIELDNCWYILGLSA the amyloid nucleation score was “inactive”.
With RIRVIIVPALVLA the amyloid nucleation score was “inactive”.
For RKTLLLKTRACPSPLFWLDT, the amyloid nucleation score was “inactive”.
